From the RNAGym collection of RNA variant scans (doi:10.1073/pnas.2313332121)
Variants at the floor of the assay were thinned out.

B1: TPR 5TU (parent)
chain: GGAUCUUCUCGAUCUAACAAAAAAGACAAAUCUGCCACAAAGCUUGAGAGCAUCUUCGGAUGCAGAGGCGGCAGCCUUCGGUGGCGCGAUAGCGCCAACGUUCUCAACUAUGACACGCAAAACGCGUGCUCCGUUGAAUGGAGUUUAUCAUG

Variants of: B1
Experiment: polymerase ribozyme fitness, log enrichment relative to wild type (log ratio); higher = more active; in vitro selection for triplet polymerase activity
How it was run: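 One round of in vitro selection, in triplicate, was applied to PCR-built, transcribed mutant libraries of each subunit of a heterodimeric triplet polymerase ribozyme. The steps were annealing with a biotinylated primer, partner subunit and triplets, incubation frozen at −7 °C, gel excision of extended constructs, streptavidin-bead capture and RT-PCR. Fitness is the logarithm, base 2, of genotype enrichment over wild-type enrichment from inverse-variance-weighted replicate averages of Illumina-sequenced inputs and outputs, keeping genotypes with ≥10 input reads and ≥1 read per output.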

First: GGAUCUUCUCGAUCUAACAAAAAAGACAAAUCUGCCACAAAGCUUGAGAGCAUCUUCGGAUGCAGAGGCGGCAGCCUUCGGUCGCGCGAUAGCGCCAACGUUCUGAACUAUGACACGCAAAACGCGUGCUCCGUUGAAUGGAGUUUAUCAUG [G83C C105G]
Second: GGAUCUUCUCGAUCUAACAAAAAAGACAAAUCUGCCACAAAGCUUGAGAGCAUCUUCGGAUGCAGAGGCGGCAGCCUUCGGUCGCGCGAUAGCACCAUCGUUCUCAACUAUGACACGCAAAACGUGUGCUCCGUUGAAUGGAGUUUAUCAUG [G83C G94A A98U C125U]
The “polymerase ribozyme fitness (log ratio)” value of the first is lower: -2.69 for the first, -1.82 for the second.

Compared with GGAUCUUCUCGAUCUAACAAAAAAGACAAAUCUGCCACAAAGCUUGAGAGCAUCUUCGGAUGCAGAGGCGGCAGCCUUCGGUCGCGCGAUAGCGCCAACGUUCUCAACUAUGACACGCAAAACGCGUGCUCCGUUUAAUGGAGUUUAUCAUG [G83C G136U], GGAUCUUCUCGAUCUAACAAAAAAGACAAAUCUGCCACAAAGCUUGAGAGCAUCUUCGGAUGCAGAGGCGGCAGCCUUCGGUCGCGCGAUAGCGCCAACGUUCUCAACUAUGACACGCAAAACGCGUACUCCGUUGAAUGGAGUUUAUCAUG [G83C G128A] is lower in “polymerase ribozyme fitness (log ratio)” value: -2.46 for the first, -3.88 for the second.

GGAUCUUCUCGAUCUAACAAAAAAGACAAAUCUGCCACAAAGCUUGAGAGCAUCUUCGGAUGCAGAGGCGGCAGCCUUCGGUCGCGCGAUAGCGCCAACGUUCUCAACUAUGACACACAAAACGCGUGCUCCGUUGAAUGGAGUUUAUCAUG [G83C G117A] and GGAUCUUCUCGAUCUAACAAAAAAGACAAAUCUGCCACAAAGCUUGAGAGCAUCUUCGGAUGCAGAGGCGGCAGCCUUCGGUCGCGCGAUAGCGCCAACGUUCUCAACUAUGACACGCAAAACGCGUGCUCCGUUGAAUGGAGUUUUUCAUG [G83C A147U] are within 0.2 log units of each other in “polymerase ribozyme fitness (log ratio)” value: 0.556 for the first, 0.501 for the second.

Going from GGAUCUUCUCGAUCUAACAAAAAAGACAAAUCUGCCACAAAGCUUGAGAGCAUCUUCGGAUGCAGAGGCGGCAGCCUUCGGUCGCGCGAUAGCGCCAAAGUUCUCAACUAUGACACGCAAAACGCGUGCUCCAUUGAAUGGAGUUUAUCAUG [G83C C99A G133A] to GGAUCUUCUCGAUCUAACAAAAAAGACAAAUCUGCCACAAAGCUUGAGAGCAUCUUCGGAUGCAGAGGCGGCAGCCUUCGGUCGCGCGAUAGCGCCAACGCUCUCAACUAUGACACGCGAAUCGCGUGCUCCGUCGAAUGGAGUAUAUCAUG [G83C U101C A119G A122U U135C U145A], the “polymerase ribozyme fitness (log ratio)” value rises from -4.12 to -3.51.

Going from GGAUCUUCUCGAUCUAACAAAAAAGACAAAUCUGCCACAAAGCUUGAGAGCAUCUUCGGAUGCAGAGGCGGCAGCCUUCGGUCGCGCGAUAGCGUCAACGUUCUCAACUAUGACACGCAAAACGCAUGCUCCGUUGAAUGGAGUUUAUCAUG [G83C C95U G126A] to GGAUCUUCUCGAUCUAACAAAAAAGACAAAUCUGCCACAAAGCUUGAGAGCAUCUUCGGAUGCAGAGGCGGCAGCCUUCGGUCGCGCGAUAUCGCCAACGUUCUCAACUAUGACACGCAAAACGCGUGCUCCGUUGGAUGGAGUUUAUCAUG [G83C G92U A137G], the “polymerase ribozyme fitness (log ratio)” value falls from -2.05 to -3.45.

First: GGAUCUUCUCGAUCUAACAAAAAAGACAAAUCUGCCACAAAGCUUGAGAGCAUCUUCGGAUGCAGAGGCGGCAGCCUUCGGUCGCGCGAUAGCGCAAACGUUCUCAACUAUGACACGCAAAACGCGUGCUCCGUUGAAUGGAGUUUAUCCUG [G83C C96A A150C]
Second: GGAUCUUCUCGAUCUAACAAAAAAGACAAAUCUGCCACAAAGCUUGAGAGCAUCUUCGGAUGCAGAGGCGGCAGCCUUCGGUCGCGCGAUAGCGCCAACGUUCUCAACUAUGACACGCAAAACGCGUGCUCCGUUGAAUGGAGUUUAUCGUG [G83C A150G]
The “polymerase ribozyme fitness (log ratio)” value of the first is lower: -3.75 for the first, -2.66 for the second.

Going from GGAUCUUCUCGAUCUAACAAAAAAGACAAAUCUGCCACAAAGCUUGAGAGCAUCUUCGGAUGCAGAGGCGGCAGCCUUCGGUCGCGCGAUAGCGCCAACGUUCUCAACUAUGCCACGCAAAACGCGUGCUCCGUUGAAUGGAGUUUAUCAUG [G83C A113C] to GGAUCUUCUCGAUCUAACAAAAAAGACAAAUCUGCCACAAAGCUUGAGAGCAUCUUCGGAUGCAGAGGCGGCAGCCUUCGGUCGCGCCAUAGCGCCAACGUUCUCAACUAUGACACGCAAAACGCGUGCUCCGUUGAAUGGAGUUUAUCAUG [G83C G88C], the “polymerase ribozyme fitness (log ratio)” value falls from -3.35 to ≤ -4.2.

GGAUCUUCUCGAUCUAACAAAAAAGACAAAUCUGCCACAAAGCUUGAGAGCAUCUUCGGAUGCAGAGGCGGCAGCCUUCGGUCGCGCGAUAGCGCUAACGUUCUCAAGUAUGACACGCAAAACGCGUGCUCCGUUGAAUGGAUUUUAUCAUG [G83C C96U C108G G143U] and GGAUCUUCUCGAUCUAACAAAAAAGACAAAUCUGCCACAAAGCUUGAGAGCAUCUUCGGAUGCAGAGGCGGCAGCCUUCGGUCGCGCGAUAGCGCCAACGUUCUCAACUAUGACACGCAAAACGCGUGCUCGGUUGAAUGGAGUUUAUCAUG [G83C C132G] cannot be ordered by “polymerase ribozyme fitness (log ratio)” value: ≤ -4.2 for the first, ≤ -4.2 for the second.

First: GGAUCUUCUCGAUCUAACAAAAAAGACAAAUCUGCCACAAAGCUUGAGAGCAUCUUCGGAUGCAGAGGCGGCAGCCUUCGGUCGCGCGAUAGCUCCAACGUUCUCAACUAUGACACGCAAAACGCGUGCUCCGUUGAAUGGAGUUUAUCAUG [G83C G94U]
Second: GGAUCUUCUCGAUCUAACAAAAAAGACAAAUCUGCCACAAAGCUUGAGAGCAUCUUCGGAUGCAGAGGCGGCAGCCUUCGGUCGCGCGAUAGCGCCAACGUUCUCAACUAUGACACGCAAAACGCGUGCUCUGUUGAAUGGUGUUUAUCAUG [G83C C132U A142U]
The “polymerase ribozyme fitness (log ratio)” value of the first is higher: -2.72 for the first, ≤ -4.2 for the second.

With GGAUCUUCUCGAUCUAACAAAAAAGACAAAUCUGCCACAAAGCUUGAGAGCAUCUUCGGAUGCAGAGGCGGCAGCCUUCGGUCGCGCGAUAGCGCCAACGUUCUCAACUAUGACACGCAAAACGCGUGGUCCGUUGCAUGGAGUCUAUCAUG [G83C C129G A137C U145C] the “polymerase ribozyme fitness (log ratio)” value was ≤ -4.2.
